The target in test [1] is eOD-60mer (eOD-GT8 60mer; eOD-GT8 fused to lumazine synthase, self-assembled 60-mer nanoparticle). Put plainly: biolayer interferometry, eOD-60mer in solution on immobilized biotinylated mouse MBL; apparent affinity (avidity). In general terms: In BLI a coated tip is dipped into the sample, and binding shifts an interference pattern.
The target in test [2] is recombinant mouse mannose-binding lectin (MBL) (mouse). The experiment in a line: biolayer interferometry; eOD-60mer dilutions on biosensors loaded with biotinylated recombinant mouse MBL; apparent affinity [eOD-60mer].

The results in this text go back to patent US20210363194A1.

pKd: −log10 of the molar value.

Consider “recombinant mouse mannose-binding lectin (MBL)”, for which, in test [1], the pKd (commonly the Kd on a negative log10 scale, so that one unit is a factor of ten) is 11.40.

As to “eOD-60mer (eOD-GT8 60mer; eOD-GT8 fused to lumazine synthase, self-assembled 60-mer nanoparticle)”, the pKd in test [2] was 11.42.
